Measured values reported in patent US20220411472A1 (FRED HUTCHINSON CANCER CENTER, published 2022).
Read-outs that look alike come from different tables or passages of the source.

T1: OX40 receptor on activated human CD8+ T-cells (human, UniProt P43489 29-277)
T1 construct: whole, on cells; also called CD134
T1 sequence (looked up): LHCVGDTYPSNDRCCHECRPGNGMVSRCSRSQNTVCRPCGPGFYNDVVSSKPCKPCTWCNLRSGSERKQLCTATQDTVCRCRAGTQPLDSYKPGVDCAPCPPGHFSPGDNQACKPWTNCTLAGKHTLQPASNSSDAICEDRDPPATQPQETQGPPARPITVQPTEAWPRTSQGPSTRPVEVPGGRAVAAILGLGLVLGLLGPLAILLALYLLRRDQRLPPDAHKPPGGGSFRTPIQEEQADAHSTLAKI


Columns and labels:
[1] = target: Biotinylated Tir-10_v2 peptide, Biotin-Ahx-EHI-pY-DEVAAD
[2] = target: Biotinylated Tir-10_v2 peptide, Biotin-Ahx-EHI-pY-DEVAAD; remark: listed apart in the source
[3] = target: Tir10 phosphotyrosyl peptide, FITC-Ahx-EHI-pY-DEVAAD
[4] = target: T1, OX40 receptor on activated human CD8+ …; test: flow cytometry, CD8+ T-cells 4 days after anti-CD3/anti-CD28 bead activation, 2 µg/mL construct, secondary anti-His iFluor647; axis APC: OX40; lower panel
Protocol: T-cell isolation, proliferation and activation assays. […] Cells were incubated for 30 min at 37° C. with cTRP24₆SS-scTrimer^OX40L (2 μg/mL) or cTRP24₆SS-scTrimer^4-1BBL (2 μg/mL) and subsequently stained at 4° C. using THE anti-His Ab (GenScript; #A00186).

Molecule | maximum binding response [1] [RU] | maximum binding response [2] [RU] | response [2] [RU] | EC50 (read off the curve) [3] [nM] | binding result [4]
Free SH2 domain of the human Nck2 adapter protein | 125 | 10 | 80 | 400 | –
cTRP246SS-scTrimer^OX40L (6-repeat disulfide-stapled cTRP tetramer with a single chain trimer of OX40L on each subunit) (ligand, also called cTRP246SS-scTrimer^OX4OL; cTRP246SS-scFv^OX40L) QVSHRYPRIQSIKVQFTEYKKEKGFILTSQKEDEIMKVQNNSVIINCDGFYLISLKGYFSQEVNISLHYQKDEEPLFQLKKVRSVNSLMVASLTYKDKVYLNVTTDNTSLDDFHVNGGELILIHQNPGEFCVLGGGGSQVSHRYPRIQSIKVQFTEYKKEKGFILTSQKEDEIMKVQNNSVIINCDGFYLISLKGYFSQEVNISLHYQKDEEPLFQLKKVRSVNSLMVASLTYKDKVYLNVTTDNTSLDDFHVNGGELILIHQNPGEFCVLGGGGSQVSHRYPRIQSIKVQFTEYKKEKGFILTSQKEDEIMKVQNNSVIINCDGFYLISLKGYFSQEVNISLHYQKDEEPLFQLKKVRSVNSLMVASLTYKDKVYLNVTTDNTSLDDFHVNGGELILIHQNPGEFCVLGGGGSGGGGSCEAIKAAAELGKAGISSEEILELLRAAHELGLDPEAIKAAAELGKAGISSEEILELLRAAHELGLDPEAIKAAAELGKAGISSEEILELLRAAHELGLDPEAIKAAAELGKAGISSEEILELLRAAHELGLDPEAIKAAAELGKAGISSEEILELLRAAHELGLDPECIKAAAELGKAGISSEEILELLRAAHELGLGGSHHHHHH | – | – | – | – | binds
